This is an account of results in paper PMC11324745.

The data set deals with Polθ-hel (DNA polymerase theta helicase domain) (human, UniProt O75417 1-894). Briefly: EMSA. For orientation: In EMSA bound probe runs differently from free probe, usually more slowly.
Chain of Polθ-hel (DNA polymerase theta helicase domain) (O75417 1-894): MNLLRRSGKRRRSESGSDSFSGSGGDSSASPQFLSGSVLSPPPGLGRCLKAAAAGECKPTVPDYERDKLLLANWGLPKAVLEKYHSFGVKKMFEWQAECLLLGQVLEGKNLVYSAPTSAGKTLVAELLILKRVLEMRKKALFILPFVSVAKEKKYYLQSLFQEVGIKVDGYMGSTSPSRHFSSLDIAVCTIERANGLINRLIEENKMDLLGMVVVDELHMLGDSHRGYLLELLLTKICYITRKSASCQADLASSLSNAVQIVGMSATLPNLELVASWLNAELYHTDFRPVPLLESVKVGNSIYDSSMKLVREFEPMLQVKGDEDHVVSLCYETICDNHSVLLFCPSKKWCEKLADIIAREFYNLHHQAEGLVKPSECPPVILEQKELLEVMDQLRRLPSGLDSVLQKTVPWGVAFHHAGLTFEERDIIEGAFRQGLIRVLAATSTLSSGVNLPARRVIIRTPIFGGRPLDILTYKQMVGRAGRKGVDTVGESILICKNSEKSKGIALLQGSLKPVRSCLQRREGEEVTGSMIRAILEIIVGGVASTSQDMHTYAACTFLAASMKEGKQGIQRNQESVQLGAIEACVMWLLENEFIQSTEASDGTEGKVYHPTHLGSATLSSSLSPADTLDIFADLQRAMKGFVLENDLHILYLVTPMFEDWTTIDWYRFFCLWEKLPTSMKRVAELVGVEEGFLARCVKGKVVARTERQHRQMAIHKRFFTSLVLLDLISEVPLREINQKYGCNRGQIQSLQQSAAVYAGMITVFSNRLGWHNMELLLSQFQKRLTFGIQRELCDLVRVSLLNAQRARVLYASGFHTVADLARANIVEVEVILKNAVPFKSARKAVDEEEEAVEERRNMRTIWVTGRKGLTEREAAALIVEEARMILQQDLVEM

As for TTTTTTTTTTTTTTTTTTTTTTTTTTTTT (ssDNA) [ssDNA RP316], the binding result is listed as “binds”.
